This is an account of results in patent publication US20170051065A1 (Hoffmann-La Roche, published 2017).

Assay [1] concerns the target human mutant CSF-1R L301S Y969F (human) (UniProt P07333). As to the kind of experiment: cell-based or functional assay.
Assay [2] deals with human wildtype CSF-1R (wt CSF-1R) (human, UniProt P07333 20-972). As to the kind of experiment: cell-based or functional assay.

In the case of “goat polyclonal anti-CSF-1R antibody ab10676 (abcam)”, in assay [1], the Mutant CSF-1R IC30 (cell viability of NIH3T3 mutant CSF-1R spheroids, CellTiterGlo) is above 20 µg/mL and the inhibition of cell viability at 20 µg/ml (mutant CSF-1R spheroids) came to 0%. The substance also yielded a wtCSF-1R IC30 (cell viability of NIH3T3-CSF-1R spheroids, CellTiterGlo) in assay [2] of 14.2 µg/mL.
